Results reported in paper PMC12607020, “NITAC-mediated ISGylation of eIF4E2 attenuates GSK3β proline-directed kinase activity, conferring cytoprotection” (The Journal of Biological Chemistry, 2025).

Molecular target: T1, GST-eIF4E2 (UniProt O60573 1-245)
T1 construct: eukaryotic translation initiation factor 4E family member 2 (eIF4E2, 4EHP); also called GST-tagged eIF4E2; source: E. coli BL21, purified (glutathione sepharose beads)
T1 sequence (looked up): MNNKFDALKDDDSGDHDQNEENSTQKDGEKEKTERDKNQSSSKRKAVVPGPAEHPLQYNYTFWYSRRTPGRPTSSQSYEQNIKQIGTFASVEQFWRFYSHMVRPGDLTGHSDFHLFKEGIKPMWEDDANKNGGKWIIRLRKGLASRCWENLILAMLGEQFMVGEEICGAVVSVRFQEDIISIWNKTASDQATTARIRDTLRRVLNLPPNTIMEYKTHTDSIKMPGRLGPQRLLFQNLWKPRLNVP
Assay: pull-down; GST pull-down: 1 nM His6-tagged and 1 nM GST-tagged protein in 50 mM Hepes pH 7.5, 50 mM NaCl, 2 mM EDTA, 0.1% NP-40, 10% glycerol, 2 h at 4 °C; glutathione-sepharose beads; immunoblot
Conditions: both partners purified

B1: His6-tagged Nb.28E11 (VHH)
VHH: QVQLQESGGGLVQAGGSLRLSCAASGRTFSSYAMGWFRQAPGKEREFVAAISSGGSITNYADSVKGRFTISRDNAKNTVYLQMNSLKPEDTAVYYCAARYHSLYYGYWGQGTQVTVSS
notes: nanobody from a synthetic yeast-display library; also called His6-Nb.28E11; source: E. coli BL21, purified (Ni-NTA)
**Q.** Does B1 bind?
**A.** Result: binds

B2: His6-tagged Nb.30C7 (VHH)
VHH: QVQLQESGGGLVQAGGSLRLSCAASGYTFSSNVMGWFRQAPGKEREFVAAINSGGGRTNYADSVKGRFTISRDNAKNTVYLQMNSLKPEDTAVYYCAAYGRANSSYNYGYWGQGTQVTVSS
notes: nanobody from a synthetic yeast-display library; also called His6-Nb.30C7; source: E. coli BL21, purified (Ni-NTA)
**Q.** Does B2 bind?
**A.** Result: binds
